Assay results from paper doi:10.1101/2020.03.25.005199.

Molecular target: Orai1-GFP (UniProt Q96D31)
Assay: FRET or BRET

UniProt Q96D31, sequence (Q96D31 whole entry): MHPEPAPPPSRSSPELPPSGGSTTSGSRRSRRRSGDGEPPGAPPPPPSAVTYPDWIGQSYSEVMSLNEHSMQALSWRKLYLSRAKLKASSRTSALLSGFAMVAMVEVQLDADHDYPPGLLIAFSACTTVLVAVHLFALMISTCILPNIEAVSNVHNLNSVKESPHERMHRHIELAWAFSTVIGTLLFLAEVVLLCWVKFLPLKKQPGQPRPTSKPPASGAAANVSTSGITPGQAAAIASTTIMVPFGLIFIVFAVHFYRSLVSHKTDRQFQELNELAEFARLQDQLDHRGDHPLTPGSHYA

E-FRET: 0.26
Substance: STIM1A-mCherry (from UniProt Q13586) (natural protein)
